Measurements reported in PMC7585203 (Epigenetics & Chromatin, 2020).
Where no end group is shown, it is not given here.

Columns and labels:
Assay in all cases: fluorescence polarisation; FAM-labelled peptide with GST-tagged domains or MBP-tagged full-length UHRF1; as described in ref. 4, plotted as change in anisotropy
Details in all cases: both partners purified
[1] = molecular target: T1, GST-tagged UHRF1 TTD–PHD R295A/R296A ( (printed UniProt entry is …, UniProt Q96T88 125-364, R295A | R296A))
T1 construct: also called mutation of L2 (R295A/R296A); TTD–PHD mutant; source: recombinant GST fusion
T1 sequence (looked up): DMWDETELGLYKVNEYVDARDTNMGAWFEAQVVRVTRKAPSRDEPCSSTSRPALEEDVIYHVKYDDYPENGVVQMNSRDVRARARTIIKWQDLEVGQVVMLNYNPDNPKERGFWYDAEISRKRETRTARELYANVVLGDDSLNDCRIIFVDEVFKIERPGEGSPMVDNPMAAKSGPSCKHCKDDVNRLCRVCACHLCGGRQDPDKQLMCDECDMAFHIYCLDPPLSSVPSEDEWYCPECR

[2] = molecular target: T2, GST-tagged UHRF1 TTD–PHD S298E ( (printed UniProt entry is …, UniProt Q96T88 125-364, S298E))
T2 construct: also called phospho-mimetic mutation in L2; source: recombinant GST fusion
T2 sequence (looked up): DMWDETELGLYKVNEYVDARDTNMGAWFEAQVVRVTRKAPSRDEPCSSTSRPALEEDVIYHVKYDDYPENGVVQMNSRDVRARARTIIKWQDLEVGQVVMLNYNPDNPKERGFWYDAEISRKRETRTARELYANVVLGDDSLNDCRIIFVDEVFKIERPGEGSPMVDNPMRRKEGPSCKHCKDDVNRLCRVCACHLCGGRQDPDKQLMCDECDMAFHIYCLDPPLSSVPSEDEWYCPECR

[3] = molecular target: T3, UHRF1 full-length (a.a. 1–793), MBP fusion ( (printed UniProt entry is …, UniProt Q96T88 1-793))
T3 construct: also called recombinant full-length UHRF1; full-length UHRF1; not shown: MBP, N-terminal, kept
T3 sequence (looked up): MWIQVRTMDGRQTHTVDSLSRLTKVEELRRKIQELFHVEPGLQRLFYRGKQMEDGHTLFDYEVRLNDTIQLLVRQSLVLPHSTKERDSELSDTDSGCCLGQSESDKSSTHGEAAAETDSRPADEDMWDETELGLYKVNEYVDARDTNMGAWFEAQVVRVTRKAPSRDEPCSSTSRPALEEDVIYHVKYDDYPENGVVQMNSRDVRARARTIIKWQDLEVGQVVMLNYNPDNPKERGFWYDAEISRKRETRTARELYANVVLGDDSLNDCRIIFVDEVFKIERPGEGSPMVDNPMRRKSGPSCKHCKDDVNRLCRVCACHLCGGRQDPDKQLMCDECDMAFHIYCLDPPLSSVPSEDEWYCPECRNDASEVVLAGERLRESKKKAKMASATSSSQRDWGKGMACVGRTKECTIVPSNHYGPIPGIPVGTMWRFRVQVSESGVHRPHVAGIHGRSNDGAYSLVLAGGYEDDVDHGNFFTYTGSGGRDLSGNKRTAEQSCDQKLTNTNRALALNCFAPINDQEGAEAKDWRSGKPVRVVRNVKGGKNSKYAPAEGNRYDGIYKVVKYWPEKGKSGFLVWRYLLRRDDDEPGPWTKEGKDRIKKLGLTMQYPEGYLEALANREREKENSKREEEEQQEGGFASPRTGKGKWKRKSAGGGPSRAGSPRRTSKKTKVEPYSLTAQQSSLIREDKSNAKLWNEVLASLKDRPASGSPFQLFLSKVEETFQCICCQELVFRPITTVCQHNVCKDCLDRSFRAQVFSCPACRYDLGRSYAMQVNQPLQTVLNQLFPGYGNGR

[4] = molecular target: T4, GST-tagged UHRF1 tandem Tudor domain (TTD, a.a. 125–285) ( (printed UniProt entry is …, UniProt Q96T88 125-285))
T4 construct: also called UHRF1 TTD; source: recombinant GST fusion
T4 sequence (looked up): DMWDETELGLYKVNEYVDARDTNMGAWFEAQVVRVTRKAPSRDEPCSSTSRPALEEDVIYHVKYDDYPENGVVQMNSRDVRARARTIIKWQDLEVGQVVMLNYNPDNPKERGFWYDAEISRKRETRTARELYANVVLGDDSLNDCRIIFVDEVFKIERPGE

- binding result [1]: binds
- binding result [2]: binds
- Kd [3]: 41 nM
- Kd [4]: 30 to 80 nM
B1: FAM-LIG1(118–130)K126me2 peptide (peptide)
peptide: {FAM}-IPKRRTARK(Me2)QLPK
modifications: not fully specified (C-terminus); printed as FAM-LIG1(118–130)K126me2 peptide
notes: DNA ligase 1 (LIG1), residues 118-130; also called FAM-LIG1K126me2; LIG1K126me2 peptide; source: bought: GenScript (synthetic peptide)
